From the NTF2 design screens of Basanta et al. (2020)

Assay: protease stability score; higher = more stable; yeast display proteolysis, trypsin and chymotrypsin;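 also: log10 excess protease needed over predicted unfolded state with 0 meaning unfolded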

Sequence | protease stability score
DNEEHKVLEELIRAIQEGNEKDIKRLIDPNARVNVGDKTYHGREQIVKWWFDLQQELEFEIDIKRWHVNNGQIRADIKYVRNNNGKPESFRADMQVTASNGKFKSVSVHETK | 1.43
DTQEKLKHWWKHVQENIKTGDEDRLHEMVDPNASVQVGDKELHGREKIATTYVELMSRVDHVRIQITELEVHGNDFDLTFNYEADVNGRKEHDHYRVVLQEHNGQLRLVQMSEG | 0.747
DHEQLKNLKELLEAVQTGDEDQVKELMDPNAKFEYGNKSFHGRESMESYLKKLENEARVTVRSVTVRVSNGTISADVHLIFEVNGQPITVDAKFEAELHNGRVKHLYVRMPEETMKEIQG | -0.312
DEKELKKVLERLVKAFKNGNTEEAKKLGKDDVQVEYGDEKYEGPDAMRTVLERVKKLGYEVEYKEEHYKGDTVTVKVEANLGGRTAKFRFQYQVQGQRVDKVKVEYSETAQKQIKHG | -0.106
DEHVKETFHSFLHAQTTGDPDKMHKLFDKDARVRYGDKVYHGRETLMRIFHKLRRNIRVDVKFEDIKVDNGKLHAEADMTINHDGKPRQKKVIIELVLHNGKIKQFNQELRG | 0.723
DERVHEAFRRFVHALKEGDPDKIRENADEDVRIEVGDTEIQGRETLADRVEEEMKDMQIEYQIDSIKVHGNKAKVNMRVVKNHNGKPETRKFTVHVTFDNGKVKNVHVQDDR | 1.3
EDRDKVRRAIKRMLDVMSTGDEDKLREYADENVKINVGDKDVHGREEAARFLKTHADQYDHIDQRIQDVKKENGQVEVRREMEATHNGHTHRDREHIVVEIRGDNMKIKSIQRQ | -0.409
EEEQLHNVVRALNQNDFDKFRKLIDPNARVVVGDKSWHGREDLSNYIKQLQDHVDHRTVKDVKWHNGKIHADVEQTVNGKKMRFVFQAVVKGDKVKELNMKFRDERVETLMRKVLR | 0.14
DEERRKNLAREYNKALTSGDENKVRRLADENVRIEIGDHVVSGRENLSKLVRDDQERVDRFRVQDVHVEGDKIQFDIQVEINGKTINITIEMQLHNGRIKKIKFDPRAVEQLKG | 0.612
DHTEVKKQNEQVRKALTQGDPKTMKKMFDPNVKLQVGEKSYRGHKDLQKWAEEMHKRVDHARVDSVHARGNHVTVDVVFNINGREKRLTLRVSYHNGRINEVHMTDG | 0.745
DEDAVNRYEEFVENLKSNNEHKLSEYLDPNVRLVIGDKTLHGKDNFRRRVRHMTKHMRLQLNYKDLKVQGEEIHVHADVRQTHDGKPQNTHFSASMRVNGDKAKEITIKDDG | 0.207
DPKKFHKAAVLLAQAAMNGDYKRVVELYKPDARLTLVDQEVQGQEQIKKHAKKFYDRGKRFQFKRVEVTGDYVKLQFDIEVGGTRVTFEARVHAQDDTVDEYELRFDDTAREMQERG | 0.073
DEESLDHLRKVLEKNDPDQLTELMDPDATAVIGNTEVHGREKVVTIMRRIYERADSIHIDRFSHQGDRLVADMQVNINGKKMRYEYVIRVHNGRIKYVKFHVTSEDVERDLTRAVS | 1.67
DEEHMEHFREVMEQNDPDELNELVDPNARLVIGDKKYHGRDTVVKLIKRFWSKADHNRLRSLTIRNGRASWRMQATVNGQRLDFTVEAVFHNGRLKTMRFKFRDRSQVDHFRRLLQ | 1.74
DDHREEQMNRVAETGNFKHLASQLDKDATAFYGDKTVEGREHIQENLNRLHSHIDHIEYKKVEVKNGKVDVDFTAVINGTTFRAQMRLVVHNGRIKTISMRARDEKDKKLIHEWLS | 0.83
DEERYKQLMEKAFKMIKQGNEEEARKLLKPDVEYHYADKTFRGEEAAQFIVKVVQKLGAEDHNQRQEVNGDTMKADFRYTQGDQTVQTKAEVIYKGDKATEARVEMSDEVKKVLDQG | -0.052
DETHKAKEMLKEFHTAVSKGDEDRYSNLLDENVHITYGDKTVHGREEAVKLFTELQERADHVDVDVVSVDVKGETVKARIRINFVYDGREDRHEFTLIAIVDNGRFVIKSIIQK | 1.22
DEKKAEDAARQMLEALRTGDPKRMVDHMDPNARALVGDTRYHGREEASKMVEHIRRRVDHVRVDNFRVRGNKLHLHAVFDSNGRRERVQIRADVHNGKIKVFEITSQ | 0.342
EEEKLQKVAKEMFDAVQKGNVDKLKKLGKEDVEFQFVDHRVKGADHYLQIMKKQLDHGVQFEIKQAQVKDNTVTMTTQVQYGDKTVRVEAKAEYDGGRLQRAEVKLTEEAKEAQKKG | -0.026
DDEEQKERAEEIIKAIQTGDPQQFNRQADPNVEVKIGDTNVHGRENAARNIAERVQRADHIQVETMDVDGNNVVIDMVIQHNGRTKRFIVTLHFQNGRVKKMSIEDS | 0.459
DEDQVQRVREMIKAWQHNDPEKLMQQVDPNVKARVGDKTLQGREQMSKDLDRRRKEARFVIRVQEVDKRENRVQVNVKMKVNHNGHPHSFSFILNVEVHGDHIHTIHIERDK | 0.356
DENLNTLMTQFMRAIQRGDEKRAKQLADPNAEIKYGDRSIHGMDQHADTIRKIRRKMRVDVTEVSHTTDGEQVNVEVTAIFNHNGEPKKRKFQFSATISNGRIKQVEVQDSQ | 0.654
DEHHEARKMIKHYFELLNQGNFEEAAKLFDEDAKVHVGDRTVNGREQIHDWFTRMRKQIDEFTVRLTKVEVSNGHVRVDFYYTKNHNGKSKSNSVDMIFQNNNGRIRAKSMQEK | -0.085
DEERVERLARTAFKAAVNGDEDKLRKMLKPDVKYKYIDEEREGEDVAKFVVKLMKKIGAEVRLKRLEVRGDTVKADFDYKQGDKTVRTKAEVKYKGDKVDEARVELTDEVKKVLTRG | 0.125
DEQAQKRAKNFMTAIQSNDPQKVKENVDKDVNIRIGDRIVHGREQLEDYYSHWNTKMRQRVSFKRMDVQGNHVDLKAEASNTNNGQPNHFEVRITITFHNGKIEKANLEFQP | -0.422

Sequence | protease stability score
DESDMKRQAELFIRAVNTGDSDKVRKMADKDAHYDVGDKEIHGRENAARWVQRLREQADEVTVRDVRVQGEKVVIDVQADVNGRDVRMDLVIEFHNGKAQEVKMKHS | 0.025
DERDQKHLAELIAKALETGDFKLAQKNVDENVRVKVGDETLHGKDNMQKWAEENHRRVDHLQLNDIKIHNGRVVINMRAVVNGKDFRLDIKIQFDNGKIHVVSIDPRVERHIKS | 0.733
DEEKEKEAADRASTNDPDEFRKMVDEDARVVVGEKQWHGREKVQKFYEDQKKRIDHLRVEHVDKDGNRVVITQFYQVNGVRVHAIFIITVHNGRLKMRSVQFTDEHAERRMKKAVS | 0.528
DEEQVTKAKNLLENWKTNNPEEVKKLADPNARAQIGDQVIHGMDKYVTFLHKQRSKMRFELHIRSMTADNGRVKMTFDHVVDHNGRPDKNDARMSVQFENGKIKELVIQKDK | -0.295
EEELVKRLKELFEAYQTGDEHQLKDLMDPNVRANIGDKTFHGREKLITHIKRYLDELDFQLKSVTFRLSGDHAVVTFEIEVDVNGVPRSFRFRFHIKMSNGKVTEIEIQFDPERQKKLES | 1.38
DEDLAKRFVTFIKIMLNGDPDKLEKMMDENATVNVGDRRLTGHETIAKDLHRLINESRVHIQLRDFDVRPGRVELEFEAERKHDGRPHTSRFIVIVKDHNGKMVKIVVKQTK | 1.02
DERDLKTFLDILERNDEDKLQTMADENVELQVGDKTFHGREEFQKYVQHVRDQVDRVDVRDYRIDNGRASVRVIFDFNGKNLDVVMVFSVRNGRVKYFSIQYRDEEVKKMLEEIEG | -0.172
DEKKAEELARTVFEMADKGDKDTLRKIGMPNGEYKYVDKRYEGEQLALILVEQIKKVGAQVKVKRMEVRGDKVQADFDYEYGDKTVRTTARLEYKGDKLLRAEVEVSEEVKKIMTQG | -0.073
DEEEVQKILKTMNELLKHNDFDSLARQADPNAEFHVGDKRVHGREQVQTMLQDLRERIDHVEIRSMTAQGDKFKLDFLENVNGRRTRVTAHADVHNGRIKSVEYRTS | -0.619
DEEDLRTRASEFNKVLENNDPDRLNKLADKDATANYGDHEYHGREDIHHMAETMVRQVDRIEIKHVQARNGRVKVDLIMRVNGKEVKVDVTMEFHNGHLKLVTFDPDQVRKVEG | 0.673
DDHVNREINRLMEKNDEQKFVDQADENASMDVGNKRYHGRDAAIKAARAWRKAADHVRIKRFEYSNGKIIIVVVVQFNGHRYDVTIDIVHHNGKVKEFVVRFTDPEQERDFRDWLG | 0.509
DERKLATRHAHTLDRILRTGDEERYVDMADKDVKFDVGDRKYKGRHELHKLAKEEQKKADHLQLNYKHITAHNGRVDMDVVVVQVHNGQKRQTNVRYSEEIHNGNVIVQSATEK | -0.355
DETEAKKNVEVVEQNDWDTFEDQVDENAKMKVGDKEIHGREQFSEFADNMKKNADHVEVKSVDRRGDEINIEMVVSVNGKRVTYVVQFVVNNGKIHDVQFDARSEDDERFLKEVQS | 0.619
DEEHARTFMEEWQKAVQKGDHKRAQEIYKPNVEWVAGDKQTQGTDVVREMLEKAQKMGVEFQVRRAEVEGNKVRFQYDVRHGNETVTFHVEVTVQGGKIDRVQVKFDEKAQKVQKEG | 1.07
DEESDKKFLEKIRKLFEDGDPDQFRKMFPPDATAVIGDKSVHGNQVEQAVNTFEKNRADHVRIDSFEVSNGRVDIDVVVNHNGEERRIKIVFIARNGRLEHMRFVST | 0.215
DEERQQKVADDLATIMTNGNPDQMLELADKDVKAKYGDTEIHGREKVREYWKTIRDQADHIHIDTFKAENGQVDIQAHAKFNGKDYKFNLRIEFDNGRIKSIVVQEQ | 0.278
DEDDLETLLKKIIDAMRNGDPKQMMRLVDENAKLVVGDKTVHGREEVSKWMKELRRQVDDNDYKDFHVQGDKARIDHFVNINGTNTERVIDIEVHNGRVKRLVYHEK | 0.159
DEDQMAETLFDEIRKIWETGSEEDAKKMMDPNAHVHVGDKEVTGREEIAKRLHDEAKKADHINLTLEDVEVKGDKAQLHVRFQLHVNGKRDERRIVFVFRNHNGRLIMVTASDS | 1.44
DEEASKKIKTLVQILNTGDPDKAVKLFDPNARFQVGDKEISGREQFKEVLKKLKHKMRNDIKVKHVEVNNGHANAHAVMTVQVNGQPDHFTFIMRIQWHNGVIEHREVQMDEDELRRYNS | 0.339
DEDKTAEQVAETIQKIWEKGDPTKMEKLFDPNASINVGEKTVKGREKIFTEAKKLMKEADHVRVTVQHVEARGDHVIVRFTFTLHVNGKNRKHEVEINAEDKNGHLRARDIKMR | 0.351
DEEKVHKQAHDYRTALQRGDPDRAAHLIDKHARIRVGDHTVNGRTQFKKMMEQLHTRIDKIEFKDVDVQGNKVNINIVVEVNGRRVEVTVDLDVQGDRVKQAVLTFRDPDNAKQMLG | -0.111
DEENIEQLRRMMTNLNTGDFHKMVNLMDPNARVRYGDRQISGREEVRKEWEKIVKSMHIERQVRSIEDHDGRAYADVELRVNVDGRPFSVRFTVVVEVRNGRVKFLEVRVPEEFMEKLDS | 1.07
DEDKRKLVEDLIEAEERGDNERIKELADKDAEYIYGDKTVEGREEHAKEVKKKHDQQRVKITSMRINAHGDKIQVSIEYTVEDNGQPRRARVHIKFVIHNGRFQSMHIQDHR | -0.253
DEQSEAEKFARDIQKIANHNNFERLARMADKDVKYNVGDKVITGEEKAIEHHRRLQKQFDSMRLEIESVRVQGEKIVVVARYTVEVNGTTRSERFVLVAEVHNGTIRIKTVQQG | -0.167
DEEKRAEDFFRKLLQVMETGDEDKQRKMADPNARVIIGEKTFHGRENMAKAMKELRDRVDSIEFDLREIETEPGRIVINVVVILDHDGDKDERELNIRAKITGDTLVLEEIKDT | -0.309
